Experiments:
[1] = biological target: T1, full-length human PD-L1 expressed on CHO cells (human, UniProt Q9NZQ7 19-290); assay: FACS competition: blocking of mouse Fc-tagged human PD-1 binding to CHO cells expressing human PD-L1
T1 construct: whole, on cells; also called CHO-K1 cells expressing human PD-L1; PD-L1 transfected CHO cells
Procedure: (§1) 3.1 Competition assay by FACS: to examine whether the fully human antibodies can block the binding of PD-L1 to PD-1, the CHO-K1 cells expressing human PD-L1 were incubated with various concentrations of the fully human antibodies at 4° C. for 1 hour. The unbound antibodies were washed away, and then the mouse Fc-tagged human PD-1 was added to the cells. The binding of human PD-1 to PD-L1 expressing cell was detected by using FITC-conjugated goat anti-mouse IgG, followed by the analysis using a BD Biosciences FACSCanto II and FlowJo Version software.
(§2) Then the mouse Fc-tagged human PD-1 was added to the cells. The binding of human PD-1 to PD-L1 expressing cell was detected by using FITC-conjugated goat anti-mouse IgG, followed by the FACS analysis.

[2] = biological target: T2, hPD-L1_ECD.His point mutant P133A (human, UniProt Q9NZQ7 19-238); assay: capture ELISA on coated 1.14.4; relative to silent alanine substitutions
T2 construct: extracellular domain
Procedure: (§3) After interacting with the supernatant that contains quantified PD-L1 mutant or human/mouse PD-L1_ECD.His protein (Sino Biological, China), HRP conjugated anti-His antibody (1:5000; Rockland Immunochemicals, Pottstown, PA) was added as detection antibody. Absorbance was normalized according to the average of control mutants. After setting an additional cutoff to the binding fold change (<0.55), the final determined epitope residues were identified.
(§4) The observed binding reductions most probably resulted from the instability or even collapse of hPD-L1 structure after alanine substitutions. After setting an additional cutoff to the binding fold change (<0.55), the final determined epitope residues were listed in Table 3.

[3] = biological target: T3, hPD-L1_ECD.His point mutant Y123A (human, UniProt Q9NZQ7 19-238); assay: as above
T3 construct: extracellular domain
Procedure: as §3, §4

[4] = biological target: T4, hPD-L1_ECD.His point mutant M115A (human, UniProt Q9NZQ7 19-238); assay: as above
T4 construct: extracellular domain
Procedure: as §3, §4

[5] = biological target: T5, hPD-L1_ECD.His point mutant G110A (human, UniProt Q9NZQ7 19-238); assay: as above
T5 construct: extracellular domain
Procedure: as §3, §4

[6] = biological target: T6, PD-L2 expressed on transfected CHO cells (Homo sapiens (Human), UniProt Q9BQ51 20-273); assay: FACS on PD-L2 transfected CHO-K1 cells, single bar, antibody concentration not shown
T6 construct: also called PD-L2 of PD-1 ligand family
T6 sequence: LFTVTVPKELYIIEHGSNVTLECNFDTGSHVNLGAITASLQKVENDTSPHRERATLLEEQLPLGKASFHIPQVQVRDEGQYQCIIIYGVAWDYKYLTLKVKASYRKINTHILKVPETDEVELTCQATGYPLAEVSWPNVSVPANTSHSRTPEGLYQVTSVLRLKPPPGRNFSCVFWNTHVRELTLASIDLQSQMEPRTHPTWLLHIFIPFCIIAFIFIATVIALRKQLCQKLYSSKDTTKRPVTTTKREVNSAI
Procedure: 3.8 Cross-family binding assay by FACS: to examine the cross-family binding activity of the fully human antibodies, cells lines that express PD-L2 were stained with the fully human antibodies, followed by 2nd antibody staining with FITC conjugated goat anti-human IgG Fc. PD-L1 expressing cells were used as positive control. Corresponding parental cell lines were used as negative controls. The stained cells were analyzed by using a BD Biosciences FACSCanto II and FlowJo Version software.
CHO cells transfected with PD-L1 or PD-L2 were stained with fully human PD-L1 antibodies and analysis by FACS.

[7] = biological target: T7, mouse PD-L1_ECD.His protein (mouse, UniProt Q9EP73 19-239); assay: ELISA, 2 ug/ml 1.14.4 coated on the plate, mPD-L1-His protein titrated, HRP-anti-His detection
T7 construct: extracellular domain; Bought (Sino Biological, China); also called mPD-L1-His protein

[8] = biological target: T8, recombinant human PD-L1 (human, UniProt Q9NZQ7 19-238, limits assumed); assay: surface plasmon resonance per legend paragraph 39 and paragraph 188; column Best fit-KD, mol/L from the legend
T8 construct: Used for the SPR analyte (3.2) and for the plate-coated human PD-L1 of the cross-species ELISA (3.7); also called human PD-L1 (SPR analyte); Human PD-L1 coated on ELISA plates
Description: 3.2 Affinity test by surface plasmon resonance (SPR): Antibodies were characterized for affinity and binding kinetics to PD-L1 by SPR assay using ProteOn XPR36 (Bio-Rad). Protein A protein (Sigma) was immobilized to a GLM sensor chip (Bio-Rad) through amine coupling. Purified antibodies were flowed over the sensor chip and captured by the Protein A. The chip was rotated […] and washed with running buffer (1×PBS/0.01% Tween20, Bio-Rad) until the baseline is stable. Five concentrations of human PD-L1 and running buffer were flowed against the antibody flow cell at a flow rate 100 μL/min for an association phase of 240s, followed by 600s dissociation. The chip was regenerated with pH 1.7 H₃PO₄ after each run. The association and dissociation curve was fit to a 1:1 Langmiur binding model using ProteOn software.

[9] = biological target: T9, murine PD-L1 (mouse, UniProt Q9EP73 19-238, limits assumed); assay: ELISA, murine PD-L1 coated on the plate, goat anti-human IgG Fc-HRP; antibody concentration not shown
T9 construct: also called mouse PD-L1 (coated on ELISA plates)
Procedure: 3.7 Cross-species binding assay: the cross-reactivity of the Ab to cynomolgus and murine PD-L1 was measured by ELISA. Human, cyno and mouse PD-L1 were coated on ELISA plates, respectively. After blocking, fully human antibodies were added into the plate and incubated at room temperature for at least 2 hours. The binding of the antibodies to the coated antigens was detected by using goat anti-human IgG Fc-HRP. The color reaction was developed using TMB substrate and stopped by 2M HCl. The ELISA plates were analyzed at 450 nm using a Molecular Device M5e microplate reader.

[10] = biological target: T1, full-length human PD-L1 expressed on …; assay: FACS on CHO cells transfected with full-length human PD-L1
[11] = biological target: T1, full-length human PD-L1 expressed on …; assay: FACS competition on CHO cells expressing human PD-L1; competitor mouse Fc-tagged human PD-1
Procedure: as §1, §2

T1 sequence (Q9NZQ7 19-290): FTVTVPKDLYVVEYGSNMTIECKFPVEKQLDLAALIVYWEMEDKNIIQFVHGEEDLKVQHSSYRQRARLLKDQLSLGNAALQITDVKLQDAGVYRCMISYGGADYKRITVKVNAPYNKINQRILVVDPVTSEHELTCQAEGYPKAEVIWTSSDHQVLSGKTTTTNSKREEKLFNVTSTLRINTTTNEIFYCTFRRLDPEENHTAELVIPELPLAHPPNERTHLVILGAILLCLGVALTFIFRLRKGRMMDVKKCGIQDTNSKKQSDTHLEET
T8 sequence (Q9NZQ7 19-238 limits assumed): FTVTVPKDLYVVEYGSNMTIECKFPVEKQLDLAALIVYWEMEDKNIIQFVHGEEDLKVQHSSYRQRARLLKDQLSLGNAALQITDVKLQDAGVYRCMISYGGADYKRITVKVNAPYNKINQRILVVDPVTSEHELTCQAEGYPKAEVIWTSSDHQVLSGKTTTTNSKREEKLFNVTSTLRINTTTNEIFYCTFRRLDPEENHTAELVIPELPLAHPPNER
T5 sequence (Q9NZQ7 19-238 G110A): as the sequence (Q9NZQ7 19-238 limits assumed) above, with G92A counted along it
T3 sequence (Q9NZQ7 19-238 Y123A): as the sequence (Q9NZQ7 19-238 limits assumed) above, with Y105A counted along it
T9 sequence (Q9EP73 19-238 limits assumed): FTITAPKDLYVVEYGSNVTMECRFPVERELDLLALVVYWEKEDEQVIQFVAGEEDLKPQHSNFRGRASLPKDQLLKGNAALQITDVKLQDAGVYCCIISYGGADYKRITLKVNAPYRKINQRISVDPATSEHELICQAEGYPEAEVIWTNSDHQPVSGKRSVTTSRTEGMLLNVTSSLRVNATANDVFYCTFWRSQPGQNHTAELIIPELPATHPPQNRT
T7 sequence (Q9EP73 19-239): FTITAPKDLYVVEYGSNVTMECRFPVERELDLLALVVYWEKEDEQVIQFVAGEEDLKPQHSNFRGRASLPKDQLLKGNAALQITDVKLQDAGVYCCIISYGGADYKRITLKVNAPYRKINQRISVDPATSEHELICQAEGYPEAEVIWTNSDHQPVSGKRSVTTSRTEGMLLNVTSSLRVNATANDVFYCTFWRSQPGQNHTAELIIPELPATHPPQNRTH
T2 sequence (Q9NZQ7 19-238 P133A): as the sequence (Q9NZQ7 19-238 limits assumed) above, with P115A counted along it
T4 sequence (Q9NZQ7 19-238 M115A): as the sequence (Q9NZQ7 19-238 limits assumed) above, with M97A counted along it

B1: 1.14.4 (antibody, V domains shown)
VH: EVQLLESGGGLVQPGGSLRLSCAASGFTFSSYAMSWVRQAPGKGLEWVSGISGSGGFTYYADSVKGRFTISRDNSKNTLYLQMNSLRAEDTAVYYCAKPPRGYNYGPFDYWGQGTLVTVSS
VL: SYVLTQPPSVSVAPGQTARITCGGNNIGSKSVHWYQQKPGQAPVLVVYDDSDRPSGIPERFSGSNSGNTATLTISRVEAGDEADYYCQVWDSSSDHVVFGGGTKLTVL
notes: Fully human monoclonal antibody with a human constant region of IgG4 isotype
- IC50 (read off the curve) [1]: ~2 nM
- fold change [2]: 0.664 fold
- fold change [3]: 1.11 fold
- fold change [4]: 1.02 fold
- fold change [5]: 0.632 fold
- binding result [6]: no binding
- binding result [7]: no binding
- Kd [8]: 0.392 nM
- binding result [9]: no binding
- EC50 (read off the curve) [10]: ~1 nM
- IC50 [11]: ~10 nM
